{
  "source": "paper doi:10.1101/2025.09.16.676546",
  "molecular_target": "E.amu APN ectodomain, His-tagged (for cryo-EM) (Erinaceus amurensis)",
  "assay": "cryo-EM structure",
  "data": [
    {"substance": "EriCoV RU15-1 RBD, His-tagged (for cryo-EM, BLI and SPR) (domain or fragment)", "values": [
      {"measurement": "share of the total particles that are the complex", "value": 5, "unit": "%"}
    ]}
  ]
}
